Experimental data taken from patent US20200164029A1 (ACCELERON PHARMA, published 2020).

T1: human BMP-9 (human, UniProt Q9UK05 320-429)
T1 construct: also called hBMP-9
T1 sequence (looked up): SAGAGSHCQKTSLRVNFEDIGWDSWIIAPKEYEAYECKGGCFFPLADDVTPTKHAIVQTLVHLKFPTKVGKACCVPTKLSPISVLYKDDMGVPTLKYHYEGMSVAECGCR

T2: human BMP-10 (human, UniProt O95393 317-424)
T2 construct: also called hBMP-10
T2 sequence (looked up): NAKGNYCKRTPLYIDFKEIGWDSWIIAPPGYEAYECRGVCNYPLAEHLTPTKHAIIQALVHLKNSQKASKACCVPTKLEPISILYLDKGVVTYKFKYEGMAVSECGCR

T3: mENG(27-581)-hFc (R&D Systems, catalog #1320-EN) (murine; human, UniProt Q63961 27-581)
T3 construct: Bought protein; not shown: Fc domain of human IgG1
T3 sequence: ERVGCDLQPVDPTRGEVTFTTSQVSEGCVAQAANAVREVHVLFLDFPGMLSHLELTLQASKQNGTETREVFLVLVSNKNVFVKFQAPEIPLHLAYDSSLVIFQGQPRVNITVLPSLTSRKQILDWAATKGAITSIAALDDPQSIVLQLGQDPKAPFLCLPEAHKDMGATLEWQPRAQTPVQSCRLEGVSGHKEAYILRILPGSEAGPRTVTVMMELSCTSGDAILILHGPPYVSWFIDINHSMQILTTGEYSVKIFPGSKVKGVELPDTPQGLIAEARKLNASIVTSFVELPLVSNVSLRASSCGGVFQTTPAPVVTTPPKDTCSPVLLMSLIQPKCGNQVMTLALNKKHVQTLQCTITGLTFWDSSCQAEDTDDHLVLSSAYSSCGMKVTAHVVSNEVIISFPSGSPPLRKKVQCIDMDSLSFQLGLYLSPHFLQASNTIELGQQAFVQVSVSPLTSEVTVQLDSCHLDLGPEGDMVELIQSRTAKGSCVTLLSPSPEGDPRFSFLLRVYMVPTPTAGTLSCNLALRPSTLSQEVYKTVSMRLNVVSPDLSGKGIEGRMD

B1: hENG(360-457)-hFc (Fc fusion)
chain: QTKCADDAMTLVLKKELVAHLKCTITGLTFWDPSCEAEDRGDKFVLRSAYSSCGMQVSASMISNEAVVNILSSSSPQRKKVHCLNMDSLSFQLGLYLS
notes: Expressed in COS cells, not purified; not shown: human IgG1 Fc domain
B2: hENG(258-346)-hFc (Fc fusion)
chain: YVSWLIDANHNMQIWTTGEYSFKIFPEKNIRGFKLPDTPQGLLGEARMLNASIVASFVELPLASIVSLHASSCGGRLQTSPAPIQTTPP
notes: not shown: human IgG1 Fc domain
B3: hENG(360-437)-hFc (Fc fusion)
chain: QTKCADDAMTLVLKKELVAHLKCTITGLTFWDPSCEAEDRGDKFVLRSAYSSCGMQVSASMISNEAVVNILSSSSPQR
notes: as for B1
B4: human TGF-β2 (ligand, UniProt P61812 303-414, looked up)
chain: ALDAAYCFRNVQDNCCLRPLYIDFKRDLGWKWIHEPKGYNANFCAGACPYLWSSDTQHSRVLSLYNTINPEASASPCCVSQDLEPLTILYYIGKTPKIEQLSNMIVKSCKCS
notes: also called hTGF-β2
B5: human BMP-2 (ligand, UniProt P12643 283-396, looked up)
chain: QAKHKQRKRLKSSCKRHPLYVDFSDVGWNDWIVAPPGYHAFYCHGECPFPLADHLNSTNHAIVQTLVNSVNSKIPKACCVPTELSAISMLYLDENEKVVLKNYQDMVVEGCGCR
notes: also called hBMP-2
B6: hBMP-2/7 (ligand, human)
chain 1: B5 chain
chain 2: STGSKQRSQNRSKTPKNQEALRMANVAENSSSDQRQACKKHELYVSFRDLGWQDWIIAPEGYAAYYCEGECAFPLNSYMNATNHAIVQTLVHFINPETVPKPCCAPTQLNAISVLYFDDSSNVILKKYRNMVVRACGCH
notes: read as the BMP-2/BMP-7 heterodimer
B7: human TGF-β3 (ligand, UniProt P10600 301-412, looked up)
chain: ALDTNYCFRNLEENCCVRPLYIDFRQDLGWKWVHEPKGYYANFCSGPCPYLRSADTTHSTVLGLYNTLNPEASASPCCVPQDLEPLTILYYVGRTPKVEQLSNMVVKSCKCS
notes: also called hTGF-β3
B8: human BMP-7 (ligand, UniProt P18075 293-431, looked up)
chain: B6 chain 2
notes: also called hBMP-7
B9: human activin A (ligand, UniProt P08476 311-426, looked up)
chain: GLECDGKVNICCKKQFFVSFKDIGWNDWIIAPSGYHANYCEGECPSHIAGTSGSSLSFHSTVINHYRMRGHSPFANLKSCCVPTKLRPMSMLYYDDGQNIIKKDIQNMIVEECGCS
notes: also called hActivin A
B10: hENG(26-586) (R&D Systems, catalog #1097-EN) (receptor)
chain: ETVHCDLQPVGPERGEVTYTTSQVSKGCVAQAPNAILEVHVLFLEFPTGPSQLELTLQASKQNGTWPREVLLVLSVNSSVFLHLQALGIPLHLAYNSSLVTFQEPPGVNTTELPSFPKTQILEWAAERGPITSAAELNDPQSILLRLGQAQGSLSFCMLEASQDMGRTLEWRPRTPALVRGCHLEGVAGHKEAHILRVLPGHSAGPRTVTVKVELSCAPGDLDAVLILQGPPYVSWLIDANHNMQIWTTGEYSFKIFPEKNIRGFKLPDTPQGLLGEARMLNASIVASFVELPLASIVSLHASSCGGRLQTSPAPIQTTPPKDTCSPELLMSLIQTKCADDAMTLVLKKELVAHLKCTITGLTFWDPSCEAEDRGDKFVLRSAYSSCGMQVSASMISNEAVVNILSSSSPQRKKVHCLNMDSLSFQLGLYLSPHFLQASNTIEPGQQSFVQVRVSPSVSEFLLQLDSCHLDLGPEGGTVELIQGRAAKGNCVSLLSPSPEGDPRFSFLLHFYTVPIPKTGTLSCTVALRPKTGSQDQEVHRTVFMRLNIISPDLSGCTSKG
notes: also called soluble human ENG extracellular domain
B11: ALK6 (receptor, human, UniProt O00238 14-126, looked up)
chain: KKEDGESTAPTPRPKVLRCKCHHHCPEDSVNNICSTDGYCFTMIEEDDSGLPVVTSGCLGLEGSDFQCRDTPIPHQRRSIECCTERNECNKDLHPTLPPLKNRDFVDGPIHHR
notes: Member of the printed range ALK2-ALK7; also called type I receptor ALK6
B12: ALK2 (receptor, human, UniProt Q04771 21-123, looked up)
chain: MEDEKPKVNPKLYMCVCEGLSCGNEDHCEGQQCFSSLSINDGFHVYQKGCFQVYEQGKMTCKTPPSPGQAVECCQGDWCNRNITAQLPTKGKSFPGTQNFHLE
notes: Member of the printed range ALK2-ALK7; also called type I receptor ALK2
B13: ALK3 (receptor, human, UniProt P36894 24-152, looked up)
chain: QNLDSMLHGTGMKSDSDQKKSENGVTLAPEDTLPFLKCYCSGHCPDDAINNTCITNGHCFAIIEEDDQGETTLASGCMKYEGSDFQCKDSPKAQLRRTIECCRTNLCNQYLQPTLPPVVIGPFFDGSIR
notes: Member of the printed range ALK2-ALK7; also called type I receptor ALK3
B14: activin receptor IIB (receptor, human, UniProt Q13705 19-134, looked up)
chain: SGRGEAETRECIYYNANWELERTNQSGLERCEGEQDKRLHCYASWRNSSGTIELVKKGCWLDDFNCYDRQECVATEENPQVYFCCCEGNFCNERFTHLPEAGGPEVTYEPPPTAPT
notes: also called ActRIIB
B15: ALK7 (receptor, human, UniProt Q8NER5 21-113, looked up)
chain: ELSPGLKCVCLLCDSSNFTCQTEGACWASVMLTNGKEQVIKSCVSLPELNAQVFCHSSNNVTKTECCFTDFCNNITLHLPTASPNAPKLGPME
notes: Member of the printed range ALK2-ALK7; also called type I receptor ALK7
B16: TGF-β receptor II (receptor, human, UniProt P37173 24-159, looked up)
chain: IPPHVQKSVNNDMIVTDNNGAVKFPQLCKFCDVRFSTCDNQKSCMSNCSITSICEKPQEVCVAVWRKNDENITLETVCHDPKLPYHDFILEDAASPKCIMKEKKKPGETFFMCSCSSDECNDNIIFSEEYNTSNPD
B17: ALK5 (receptor, human, UniProt P36897 34-126, looked up)
chain: LQCFCHLCTKDNFTCVTDGLCFVSVTETTDKVIHNSMCIAEIDLIPRDRPFVCAPSSKTGSVTTTYCCNQDHCNKIELPTTVKSSPGLGPVEL
notes: Member of the printed range ALK2-ALK7; also called type I receptor ALK5
B18: bone morphogenetic protein receptor II (receptor, human, UniProt Q13873 27-150, looked up)
chain: SQNQERLCAFKDPYQQDLGIGESRISHENGTILCSKGSTCYGLWEKSKGDINLVKQGCWSHIGDPQECHYEECVVTTTPPSIQNGTYRFCCCSTDLCNVNFTENFPPPDTTPLSPPHSFNRDET
notes: also called BMPRII
B19: ALK4 (receptor, human, UniProt P36896 24-126, looked up)
chain: SGPRGVQALLCACTSCLQANYTCETDGACMVSIFNLDGMEHHVRTCIPKVELVPAGKPFYCLSSEDLRNTHCCYTDYCNRIDLRVPSGHLKEPEHPSMWGPVE
notes: Member of the printed range ALK2-ALK7; also called type I receptor ALK4

target: T1, human BMP-9; experiment: SPR, captured hENG-hFc, soluble ligand

| binding result | Binder |
| --- | --- |
| no binding (tested: 100 nM) | B1 |
| no binding (tested: 100 nM) | B2 |
| no binding (tested: 100 nM) | B3 |

target: T2, human BMP-10; experiment: SPR, captured hENG-hFc, soluble ligand

| binding result | Binder |
| --- | --- |
| no binding (tested: 100 nM) | B1 |
| no binding (tested: 100 nM) | B2 |
| no binding (tested: 100 nM) | B3 |

target: B10; experiment: SPR (Biacore), immobilized construct, soluble ligand

| binding result | Binder |
| --- | --- |
| no binding (tested: 25 nM) | B4 |
| no binding (tested: 25 nM) | B5 |
| no binding (tested: 25 nM) | B6 |
| no binding (tested: 25 nM) | B7 |
| no binding (tested: 25 nM) | B8 |
| no binding (tested: 25 nM) | B9 |

target: T1, human BMP-9; experiment: SPR competition: hENG(26-586) 0-50 nM premixed with 10 nM BMP-9, binding to captured ALK1
Excerpt: (§1) BMP-9 and BMP-10 are high-affinity ligands at the type I receptor ALK1 (activin receptor-like kinase 1). […] Similar results were obtained with BMP-10 (FIG. 21).

| IC50 [nM] | Binder |
| --- | --- |
| 9.7 | B10 |

target: T2, human BMP-10; experiment: SPR competition: hENG(26-586) 0-50 nM premixed with 10 nM BMP-10, binding to captured ALK1
Excerpt: as §1

| IC50 [nM] | Binder |
| --- | --- |
| 6.3 | B10 |

target: T1, human BMP-9; experiment: SPR competition: hENG(26-586) premixed with BMP-9, binding to captured ALK1-hFc
Excerpt: as §1

| IC50 [nM] | Binder |
| --- | --- |
| < 10 | B10 |

target: B10; experiment: SPR

| binding result | Binder |
| --- | --- |
| no binding | B11 |
| no binding | B12 |
| no binding | B13 |
| no binding | B14 |
| no binding | B15 |
| no binding | B16 |
| no binding | B17 |
| no binding | B18 |
| no binding | B19 |

target: T3, mENG(27-581)-hFc (R&D Systems, catalog …); experiment: SPR (Biacore), captured construct, soluble ligand

| binding result | Binder |
| --- | --- |
| no binding (tested: 10 nM) | B4 |
| no binding (tested: 25 nM) | B5 |
| no binding (tested: 25 nM) | B6 |
| no binding (tested: 10 nM) | B7 |
| no binding (tested: 25 nM) | B8 |
| no binding (tested: 25 nM) | B9 |
